The target in assay [1] is T1, human CD137, cell-surface (human, UniProt Q07011 24-255). Briefly: cell-based or functional assay.
For assay [2], the target named is T2, cynomolgus CD137, cell-surface (cynomolgus, UniProt Q07011 24-255 (human entry)).
T2 construct: also called DO11.10.cCD137; CD137 on cynomolgus T cells
T2 chain: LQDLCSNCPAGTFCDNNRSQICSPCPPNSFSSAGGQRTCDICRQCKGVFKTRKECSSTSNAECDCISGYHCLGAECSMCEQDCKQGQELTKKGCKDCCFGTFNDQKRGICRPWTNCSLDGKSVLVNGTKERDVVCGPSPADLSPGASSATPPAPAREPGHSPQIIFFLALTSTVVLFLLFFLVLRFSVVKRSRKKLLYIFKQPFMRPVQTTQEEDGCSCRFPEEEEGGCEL
As to the kind of experiment: flow cytometry on DO11.10.cCD137. Here is the method:
(§1) Non-specific binding was also assessed by testing binding to DO11.10 cells lacking CD137 expression.
(§2) Briefly, DO11.10, DO11.10.hCD137 or DO11.10.cCD137 suspensions were prepared in FACS buffer (DPBS containing (Gibco, 14190-094) containing 0.5% BSA (Sigma, A7906)) and seeded at 1×10⁵ cell/well in 100 μl in round bottomed 96-well plates (VWR, 734-1797). […] The washed cells were resuspended in the diluted antibody mixture, incubated at 4° C. for 30 minutes, and then washed once in FACS buffer. […] Dead cells were excluded and the fluorescence in the APC channel (638 nm 660/20) was measured. The geometric mean fluorescence intensity (GMFI) values were plotted vs the log concentration of antibody and the resulting curves were fitted using the log (agonist) vs response equation in GraphPad Prism.
(In general: Flow cytometry measures light scatter and fluorescence of single cells or particles in a stream.)

Assay [3] concerns the target T1, human CD137, cell-surface. As to the kind of experiment: flow cytometry on DO11.10.hCD137; DO11.10 cells overexpressing human CD137 (DO11.10.hCD137). Here is the method:
as §1, §2

The target in assay [4] is Human FcRn (Acro Biosystems, FCM-H5286) (human, UniProt P55899 24-297; P61769 21-119). As to the kind of experiment: SPR, antibody immobilised, FcRn in flow, pH 6.0, steady state affinity; pH 6.0. An excerpt: (§3) The neonatal Fc receptor (FcRn) binding is critical for antibody recycling (Martins et al., 2016). […] G1-AA/HeID1.3 was included as an isotype control IgG control lacking mutations in the CH3 domain.
(§4) Briefly, mAb² were individually coated on flow cell 2, 3 and 4 of Series S Sensor Chip CM5 (GE Healthcare, BR100530) to achieve a response of approximately 1000 RU. Flow cell 1 was activated/deactivated but left blank as a reference. Human FcRn (Acro Biosystems, FCM-H5286) or mouse FcRn (R&D systems, 9114-Fc) was dialysed and diluted in MHBS-EP⁺B pH 6.0 or pH 7.4 buffer (10 mM MES, FortéBio, 18-5026; 1×HBS-EP, GE Healthcare, BR100669; 0.1 mg/ml BSA, Sigma, A7906) and injected on flow cell 1, 2, 3 and 4 at 2000-3000 nM with 2-fold dilutions for 1 min at 80 μl/min and then allowed to dissociate in buffer for 3 min. […] Subtracted data (flow cell 2−flow cell 1, flow cell 3−flow cell 1, or flow cell 4−flow cell 1) was analysed using Biacore T200 Evaluation Software 2.0 to identify binding using the model steady state affinity.
(SPR reads the build-up and loss of mass on a sensor chip optically.)

Assay [5] deals with T3, mouse FcRn (R&D systems, 9114-Fc) (mouse, UniProt Q61559 22-297; P01887 21-119, limits assumed).
T3 sequence (looked up) 1: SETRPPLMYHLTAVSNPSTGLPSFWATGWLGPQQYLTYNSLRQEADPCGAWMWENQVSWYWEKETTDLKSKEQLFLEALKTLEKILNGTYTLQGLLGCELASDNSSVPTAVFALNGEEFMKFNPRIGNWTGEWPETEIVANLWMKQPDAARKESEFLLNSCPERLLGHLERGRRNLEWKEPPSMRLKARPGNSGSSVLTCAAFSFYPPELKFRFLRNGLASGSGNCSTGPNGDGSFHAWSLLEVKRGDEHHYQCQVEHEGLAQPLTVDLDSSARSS
T3 sequence (looked up) 2: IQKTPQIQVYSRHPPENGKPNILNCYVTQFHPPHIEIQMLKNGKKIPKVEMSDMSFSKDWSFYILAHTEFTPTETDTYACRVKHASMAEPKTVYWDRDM
The assay is described as above.
Excerpt: as §3, §4

For assay [6], the target named is T4, human PD-L1, cell-surface (human, UniProt Q9NZQ7 19-290).
T4 construct: also called HEK.hPD-L1; PD-L1 on MDA-MB-231, on Promega PD-L1 cells, on primary human cells
Briefly: flow cytometry on HEK.hPD-L1. Here is the method: (§5) Non-specific binding was also assessed by testing binding to HEK293 parental cells lacking human PD-L1 (Flp-In T-Rex 293 cell line, Life Technologies, R780-07).
as §2, with “HEK293, HEK.hPD-L1 and HEK.cPD-L1” for “Briefly, DO11.10, DO11.10.hCD137 or DO11.10.cCD137”, “(DPBS” for “(DPBS containing”

For assay [7], the target named is T4, human PD-L1, cell-surface. As to the kind of experiment: cell-based or functional assay.
Assay [8] deals with T4, human PD-L1, cell-surface. As to the kind of experiment: flow cytometry on activated primary human CD4+ T cells; activated primary human CD4+ T cells. The protocol: CD137 is rapidly expressed to high levels on activated CD8⁺ T cells and also on activated CD4⁺ T cells with lower levels (Xue-Zhong Yu et al, 2013), therefore Pan T cells were stimulated for 24 hours using Dynabeads™ Human T-Activator CD3/CD28 beads (Thermo, 11132D) according to manufacturer's instructions.
Dead cells were excluded and the fluorescence in the APC channel (638 nm 660/20) was measured to show test antibody binding. The geometric Mean Fluorescence Intensity (GMFI) values were plotted vs the log concentration of antibody and the resulting curves were fitted using the log (agonist) vs response equation in GraphPad Prism.

For assay [9], the target named is T4, human PD-L1, cell-surface. Briefly: cell-based or functional assay. This is another data set of the same source.
Assay [10] deals with T4, human PD-L1, cell-surface. Briefly: cell-based or functional assay. The source holds these as a separate data set.
Assay [11] has as its target T4, human PD-L1, cell-surface. Briefly: cell-based or functional assay. The source holds these as a separate data set.
The target of assay [12] is T5, cynomolgus PD-L1, cell-surface (cynomolgus).
T5 construct: also called HEK.cPD-L1; HEK.cyPD-L1
As to the kind of experiment: flow cytometry on HEK.cPD-L1. Here is the method:
as §5
as §2, with “HEK293, HEK.hPD-L1 and HEK.cPD-L1” for “Briefly, DO11.10, DO11.10.hCD137 or DO11.10.cCD137”, “(DPBS” for “(DPBS containing”

Assay [13] addresses T6, cPD-L1-His (Acro Biosystems, PD1-C52H4) (cynomolgus, UniProt Q9NZQ7 19-238 (human entry)).
T6 construct: bought; also called Cyno PD-L1-His; Cynomolgus PD-L1-His; not shown: His tag of the bought product
As to the kind of experiment: SPR, antibody captured on Protein A chip, antigen in flow.

Assay [14] addresses T7, biotinylated hPD-L1-Avi-His (Acro Biosystems, PD1-H82E5) (human, UniProt Q9NZQ7 19-238, biotinylated).
T7 construct: bought; also called Human PD-L1-His; not shown: Avi and His tags of the bought product
The description is as above.

T4 sequence (Q9NZQ7 19-290): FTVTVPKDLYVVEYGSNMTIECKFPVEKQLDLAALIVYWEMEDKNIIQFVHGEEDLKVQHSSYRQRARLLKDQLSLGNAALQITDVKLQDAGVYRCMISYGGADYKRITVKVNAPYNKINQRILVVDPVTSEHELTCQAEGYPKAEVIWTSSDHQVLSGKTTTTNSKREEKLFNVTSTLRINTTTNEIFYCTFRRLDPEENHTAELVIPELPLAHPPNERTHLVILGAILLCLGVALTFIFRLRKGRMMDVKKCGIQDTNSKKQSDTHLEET
T7 sequence (Q9NZQ7 19-238): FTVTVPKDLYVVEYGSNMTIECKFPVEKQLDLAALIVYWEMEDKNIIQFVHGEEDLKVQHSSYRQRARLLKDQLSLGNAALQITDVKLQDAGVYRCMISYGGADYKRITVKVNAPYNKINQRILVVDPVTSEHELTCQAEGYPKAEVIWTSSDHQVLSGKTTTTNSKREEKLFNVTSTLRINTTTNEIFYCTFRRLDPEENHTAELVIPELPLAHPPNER
Human FcRn (Acro Biosystems, FCM-H5286), sequence (P55899 24-297 limits assumed, chain 1 of 2): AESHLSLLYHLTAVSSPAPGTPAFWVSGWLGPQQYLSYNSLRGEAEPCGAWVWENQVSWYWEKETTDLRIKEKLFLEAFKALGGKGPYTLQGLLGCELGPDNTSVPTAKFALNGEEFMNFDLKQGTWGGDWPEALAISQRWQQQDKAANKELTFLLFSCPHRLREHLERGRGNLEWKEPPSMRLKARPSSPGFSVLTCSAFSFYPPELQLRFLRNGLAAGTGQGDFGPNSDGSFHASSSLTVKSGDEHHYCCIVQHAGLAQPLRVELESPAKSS
Human FcRn (Acro Biosystems, FCM-H5286), sequence (P61769 21-119 limits assumed, chain 2 of 2): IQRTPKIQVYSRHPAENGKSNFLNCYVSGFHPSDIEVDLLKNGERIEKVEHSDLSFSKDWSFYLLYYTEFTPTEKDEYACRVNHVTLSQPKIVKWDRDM
T6 sequence (Q9NZQ7 other isoform, or with tags, fused parts or gaps): as the sequence (Q9NZQ7 19-238) above, with A33T, A34S, S62N, R68Q, Q82R, F173L, T185A, T192I, H215L counted along it
T5 sequence (chain, as listed by the source limits assumed): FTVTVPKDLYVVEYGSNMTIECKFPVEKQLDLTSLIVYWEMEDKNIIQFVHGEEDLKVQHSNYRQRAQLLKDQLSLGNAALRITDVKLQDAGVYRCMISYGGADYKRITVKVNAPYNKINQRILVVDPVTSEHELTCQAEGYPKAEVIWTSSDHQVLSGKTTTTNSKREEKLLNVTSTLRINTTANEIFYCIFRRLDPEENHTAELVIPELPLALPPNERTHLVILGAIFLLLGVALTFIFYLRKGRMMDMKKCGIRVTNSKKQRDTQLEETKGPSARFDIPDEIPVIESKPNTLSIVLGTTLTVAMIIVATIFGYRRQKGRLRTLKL

B1: FS22-172-003-AA/HeID1.3 (bispecific antibody, human IgG1, kappa, L234A L235A)
heavy: QVQLQESGPGLVRPSQTLSLTCTVSGSTFSGYGVNWVRQPPGRGLEWIGMIWGDGNTDYNSALKSRVTMLVDTSKNQFSLRLSSVTAADTAVYYCARERDYRLDYWGQGSLVTVSSASTKGPSVFPLAPSSKSTSGGTAALGCLVKDYFPEPVTVSWNSGALTSGVHTFPAVLQSSGLYSLSSVVTVPSSSLGTQTYICNVNHKPSNTKVDKKVEPKSCDKTHTCPPCPAPEAAGGPSVFLFPPKPKDTLMISRTPEVTCVVVDVSHEDPEVKFNWYVDGVEVHNAKTKPREEQYNSTYRVVSVLTVLHQDWLNGKEYKCKVSNKALPAPIEKTISKAKGQPREPQVYTLPPSRDELPYIIPPYNQVSLTCLVKGFYPSDIAVEWESNGQPENNYKTTPPVLDSDGSFFLYSKLTVGADRWLEGNVFSCSVMHEALHNHYTQKSLSLSPG
light: DIQMTQSPASLSASVGETVTITCRASGNIHNYLAWYQQKQGKSPQLLVYNAKTLADGVPSRFSGSGSGTQYSLKINSLQPEDFGSYYCQHFWSTPRTFGGGTKLEIKRTVAAPSVFIFPPSDEQLKSGTASVVCLLNNFYPREAKVQWKVDNALQSGNSQESVTEQDSKDSTYSLSSTLTLSKADYEKHKVYACEVTHQGLSSPVTKSFNRGEC
notes: mock mAb^2 with LALA
Consider B1, for which, in [1], the “Emax (pg/ml), IFN-γ release, human MLR (EC50 N/A)” value was 3570 pg/mL. Besides, the values for the EC50 in assay [2] and in assay [3] were 9.09 nM and 6.25 nM, respectively.

B2: G1-AA/HeID1.3 (antibody, human IgG1, kappa, L234A L235A)
heavy: not shown
light: DIQMTQSPASLSASVGETVTITCRASGNIHNYLAWYQQKQGKSPQLLVYNAKTLADGVPSRFSGSGSGTQYSLKINSLQPEDFGSYYCQHFWSTPRTFGGGTKLEIKRTVAAPSVFIFPPSDEQLKSGTASVVCLLNNFYPREAKVQWKVDNALQSGNSQESVTEQDSKDSTYSLSSTLTLSKADYEKHKVYACEVTHQGLSSPVTKSFNRGEC
notes: anti-hen egg lysozyme IgG1 with LALA, isotype control
Regarding B2, the figures for the Kd in assay [4] and in [5] were 1230 nM and 160 nM, respectively.

B3: G1-AA/E12v2 (antibody, human IgG1, kappa, L234A L235A, V domains shown)
VH: EVQLVQSGAEVKRPGASVKVSCKASGYPFTSYGISWVRQAPGQGLEWMGWISAYSGGTNYAQKLQGRVTMTTDTSTSTAYMELRSLRSDDTAVYYCARDLFPTIFGVSYYYYWGQGTLVTVSS
VL: DIQMTQSPSTLSASVRDRVIITCRASQSIGNRLAWYQHKPGKAPKLLIYEASTSETGVPSRFSGSGSGTDFTLTISSLQPEDFATYYCQQSYSTPYTFGQGTKLEIKR
notes: anti-PD-L1 IgG1 with LALA
Take B3: the EC50 (commonly the concentration at which the effect is half-maximal) worked out at 3.1 nM in assay [6], 0.8 nM in assay [8] and 0.6 nM in assay [12]. The “EC50 (nM), IFN-γ release, CEF antigen recall assay (CD8+ T cell activation)” value in assay [7] amounted to 0.04 nM. In addition, the “EC50 (nM), IFN-γ release, CEFT antigen recall assay (CD4+ T cell activation)” value in [9] worked out at 0.06 nM. For the same molecule, the “EC50 (nM), mouse IL-2 release, DO11.10 / LK35.2 PD-L1 blockade assay” value in assay [10] came to 1.19 nM. In assay [11], the “EC50 (nM), IFN-γ release, human MLR” value was 0.08 nM. Moreover, the Kd (usually the constant that tells how readily two partners part at equilibrium) in [13] worked out at 0.37 nM; in assay [14], 0.21 nM.

Source of the values: patent US20250346679A1 (INVOX PHARMA, published 2025).
